Numbering of substitutions follows the chain as printed.
B1: SEQ ID NO 97 (designed binder)
chain: MLPAPKNLVVSRVTEDSARLSWTAPDAAFDSFFISYFEGWASGEAIHLYVPGSERSYDLTGLKPGTEYSVHIQGVKGGQPSTPLSAIFTT
B2: SEQ ID NO 85 (designed binder)
chain: MLPAPKNLVVSRVTEDSARLSWTAPDAAFDSFFIWYWEKSVDGEAIVLTVPGSERSYDLTGLKPGTEYNVGIQGVKGGTPSDPLSAIFTT
B3: SEQ ID NO 100 (designed binder)
chain: B2 chain with F33W, W35E, K39V, S40V, V41G, D42F, N69W, Q73Y, T79N, D82V
B4: SEQ ID NO 86 (designed binder)
chain: B2 chain with F33I, W37A, K39W, S40V, V41N, N69R, G71E, Q73T, P80W, D82R
B5: SEQ ID NO 94 (designed binder)
chain: MLPAPKNLVVSRITEDSARLSWTAPDAAFDSFGIYYYEWWSTGEAIVLTVPGSERSYDLTGPKPGTEYYVKISGVKGGYRSYPLSAIFTT
B6: SEQ ID NO 84 (designed binder)
chain: MLPAPKNLVVSRVTEDSARLSWTAPDAAFDSFPIYYWEVFPAGEAIELDVPGSERSYDLTGLKPGTEYFVRIEGVKGGASSYPLRAEFTT
B7: SEQ ID NO 93 (designed binder)
chain: MLPAPKNLVVSRVTEDSARLSWTAPDAAFDSFYIGYLEPGDNGEAIVLTVPGSERSYDLTGLKPGTEYNVSIGGVKGGLGSYPLSAIFTT
B8: SEQ ID NO 36 (designed binder)
chain: MLPAPKNLVVSRVTEDSARLSWTAPDAAFDSFTITYIEWWENGEAIALSVPGSERSYDLTGLKPGTEYQVGIAGVKGGYKSYPLWALFTT
B9: SEQ ID NO 88 (designed binder)
chain: MLPAPKNLVVSRVTEDSARLSWTAPDAAFDSFWIEYFEWTVGGEAIVLTVPGSERSYDLTGLKPGTEYYVSIYGVKGGWLSPPLSAIFTT
B10: SEQ ID NO 99 (designed binder)
chain: MLPAPKNLVVSRVTEDSARLSWTAPDAAFDSFGIQYNEFVFRGEAIVLTVPGSERSYDLTGLKPGTEYFVPISGVKGGDDSRPLSAIFTT
B11: SEQ ID NO 102 (designed binder)
chain: MLPAPKNLVVSRVTEDSARLSWTAPDAAFDSFSIDYDEPQPVGEAIVLTVPGSERSYDLTGLKPGTEYRVDIWGVKGGPTSGPLRATFTT
B12: SEQ ID NO 95 (designed binder)
chain: MLPAPKNLVVSRVTEDSARLSWTAPDAAFDSFRISYYEWYDLGEAIVLTVPGSERSYDLTGLKPGTEYWVDIAGVKGGYYSYPLSAIFTT
B13: SEQ ID NO 35 (designed binder)
chain: MLPAPKNLVVSRVTEDSARLSWTAPDAAFDSFEIAYFEAIWNGEAIYLTVPGSERSYDLTGLKPGTEYQVEIRGVKGGPTSRPLFAWFTT
B14: SEQ ID NO 101 (designed binder)
chain: MLPAPKNLVVSRVTEDSARLSWTAPDAAFDSFAIDYDEPINSGEAIVLTVPGSERSYDLTGPKPGTEYEVEIYGVKGGYLSRPLSAIFTT
B15: SEQ ID NO 90 (designed binder)
chain: MLPAPKNLVVSRVTEDSARLSWTAPDAAFDSFTIHYWEFDPPGEAIVLTVPGSERSYDLTGLKPGTEYTVYIEGVKGGWWSKPLSAIFTT
B16: SEQ ID NO 91 (designed binder)
chain: B15 chain with T33V, H35E, F39R, D40T, P41Q, T69D, Y71W, E73S, W79K, K82E
B17: SEQ ID NO 98 (designed binder)
chain: B15 chain with V13I, T33D, H35P, W37G, P41T, P42I, T69D, W79H, W80L, K82W

What follows are binders tested against human serum albumin (human) (UniProt P02768) (assay: screening ELISA).
Sequence of human serum albumin (human) (P02768 25-609 limits assumed): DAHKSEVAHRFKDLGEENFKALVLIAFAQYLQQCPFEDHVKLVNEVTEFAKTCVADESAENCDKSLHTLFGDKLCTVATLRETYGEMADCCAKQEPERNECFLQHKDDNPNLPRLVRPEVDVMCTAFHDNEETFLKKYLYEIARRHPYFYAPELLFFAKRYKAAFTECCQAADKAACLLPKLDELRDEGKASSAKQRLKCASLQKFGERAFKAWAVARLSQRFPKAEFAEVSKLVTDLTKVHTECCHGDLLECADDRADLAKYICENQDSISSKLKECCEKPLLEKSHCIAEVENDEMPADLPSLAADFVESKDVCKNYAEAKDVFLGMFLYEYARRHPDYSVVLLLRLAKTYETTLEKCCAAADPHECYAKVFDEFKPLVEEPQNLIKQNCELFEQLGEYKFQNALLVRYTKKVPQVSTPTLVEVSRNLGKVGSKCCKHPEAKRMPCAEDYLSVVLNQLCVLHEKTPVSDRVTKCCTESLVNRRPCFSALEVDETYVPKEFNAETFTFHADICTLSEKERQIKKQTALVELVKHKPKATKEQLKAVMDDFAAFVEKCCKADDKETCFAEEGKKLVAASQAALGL

Row | HSA | Binder
1 | 2200 | B1
2 | 2500 | B2
3 | 2350 | B3
4 | 2250 | B4
5 | 9900 | B5
6 | 3850 | B6
7 | 1650 | B7
8 | 6160 | B8
9 | 6000 | B9
10 | 8150 | B10
11 | 13400 | B11
12 | 1900 | B12
13 | 1520 | B13
14 | 9100 | B14
15 | 2550 | B15
16 | 1800 | B16
17 | 15500 | B17

From US20210145976A1
